Assay results as given in patent US20220403022A1.

Target: human TIGIT on cells (primary T cells, transfected HEK293 cells, Jurkat reporter cells, NK cells) (human) (UniProt Q495A1)
Test: cell-based or functional assay

Chain of human TIGIT on cells (primary T cells, transfected HEK293 cells, Jurkat reporter cells, NK cells) (human) (Q495A1 22-244 limits assumed): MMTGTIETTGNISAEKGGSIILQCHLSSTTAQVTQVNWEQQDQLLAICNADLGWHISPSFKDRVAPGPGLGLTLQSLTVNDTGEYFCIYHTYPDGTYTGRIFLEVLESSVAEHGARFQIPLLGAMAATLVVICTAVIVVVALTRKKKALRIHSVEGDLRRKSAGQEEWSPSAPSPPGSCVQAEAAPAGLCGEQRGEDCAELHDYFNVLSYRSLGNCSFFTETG

- Max RLU (potency): 575 RLU
Substance: Isotype control (antibody)
